# Measurements as given in paper PMC3401373, “ATM-Dependent Downregulation of USP7/HAUSP by PPM1G Activates p53 Response to DNA Damage” (Molecular Cell, 2012).
# Molecular target: T1, His-tagged USP7S (Ser18-containing isoform of USP7/HAUSP), purified recombinant (human, UniProt Q93009 1-1102, phosphoserine at 18 as purified from insect cells; not stated whether the phosphorylated or the dephosphorylated form stood in the pull-down of Figure 4D)
# T1 construct: USP7 (HAUSP), human, the isoform that contains serine 18 (USP7S); also called pUSP7S; source: recombinant, purified from insect cells
# T1 sequence (Q93009 whole entry, canonical isoform): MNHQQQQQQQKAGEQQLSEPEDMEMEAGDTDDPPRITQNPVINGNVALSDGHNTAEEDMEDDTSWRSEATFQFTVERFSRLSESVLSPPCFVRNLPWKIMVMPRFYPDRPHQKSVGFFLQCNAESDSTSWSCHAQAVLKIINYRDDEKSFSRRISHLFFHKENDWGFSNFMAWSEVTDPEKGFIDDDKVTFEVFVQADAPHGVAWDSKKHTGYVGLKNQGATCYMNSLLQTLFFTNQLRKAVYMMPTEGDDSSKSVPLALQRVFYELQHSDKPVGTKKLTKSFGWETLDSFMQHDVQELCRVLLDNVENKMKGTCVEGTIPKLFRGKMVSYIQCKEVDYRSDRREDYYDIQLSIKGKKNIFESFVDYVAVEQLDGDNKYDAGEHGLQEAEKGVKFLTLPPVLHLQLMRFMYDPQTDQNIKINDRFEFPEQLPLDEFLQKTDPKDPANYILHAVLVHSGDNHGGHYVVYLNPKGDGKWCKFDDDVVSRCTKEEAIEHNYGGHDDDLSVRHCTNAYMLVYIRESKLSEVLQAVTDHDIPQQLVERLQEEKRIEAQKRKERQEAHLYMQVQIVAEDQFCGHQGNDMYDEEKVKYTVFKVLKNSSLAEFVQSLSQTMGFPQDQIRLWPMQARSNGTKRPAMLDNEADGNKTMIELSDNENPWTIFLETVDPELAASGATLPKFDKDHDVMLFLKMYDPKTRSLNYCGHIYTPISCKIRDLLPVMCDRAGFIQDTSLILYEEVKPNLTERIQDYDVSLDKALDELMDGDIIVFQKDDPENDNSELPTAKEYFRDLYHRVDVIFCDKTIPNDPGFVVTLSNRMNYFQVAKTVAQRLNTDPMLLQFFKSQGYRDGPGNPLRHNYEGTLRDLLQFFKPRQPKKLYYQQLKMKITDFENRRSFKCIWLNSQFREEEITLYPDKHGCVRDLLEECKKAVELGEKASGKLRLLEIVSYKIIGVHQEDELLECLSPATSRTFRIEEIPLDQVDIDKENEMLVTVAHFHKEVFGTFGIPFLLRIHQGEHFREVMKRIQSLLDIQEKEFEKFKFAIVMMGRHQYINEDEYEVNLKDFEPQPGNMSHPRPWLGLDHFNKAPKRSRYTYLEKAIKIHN
# Assay: pull-down; equal amounts (0.42 pmol) of purified His-tagged USP7S and PPM1G incubated at room temperature for 30 min; USP7S pulled down with magnetic Ni-NTA agarose beads (magnetic beads as mock control); western blot with USP7S and PPM1G antibodies
# Conditions: both partners purified
binder,measurement,value
"PPM1G, purified recombinant (enzyme, human, UniProt O15355 1-546, looked up, Serine/threonine protein phosphatase PPM1G (PP2Cγ), human; also called PP2Cγ; PPM1GGST; source: purified recombinant) MGAYLSQPNTVKCSGDGVGAPRLPLPYGFSAMQGWRVSMEDAHNCIPELDSETAMFSVYDGHGGEEVALYCAKYLPDIIKDQKAYKEGKLQKALEDAFLAIDAKLTTEEVIKELAQIAGRPTEDEDEKEKVADEDDVDNEEAALLHEEATMTIEELLTRYGQNCHKGPPHSKSGGGTGEEPGSQGLNGEAGPEDSTRETPSQENGPTAKAYTGFSSNSERGTEAGQVGEPGIPTGEAGPSCSSASDKLPRVAKSKFFEDSEDESDEAEEEEEDSEECSEEEDGYSSEEAENEEDEDDTEEAEEDDEEEEEEMMVPGMEGKEEPGSDSGTTAVVALIRGKQLIVANAGDSRCVVSEAGKALDMSYDHKPEDEVELARIKNAGGKVTMDGRVNGGLNLSRAIGDHFYKRNKNLPPEEQMISALPDIKVLTLTDDHEFMVIACDGIWNVMSSQEVVDFIQSKISQRDENGELRLLSSIVEELLDQCLAPDTSGDGTGCDNMTCIIICFKPRNTAELQPESGKRKLEEVLSTEGAEENGNSDKKKKAKRD",binding result,binds
